Laboratory results published in patent US20100189695A1, “IRAK-1 AS REGULATOR OF DISEASES AND DISORDERS” (priority 2008, published 2010).

Molecular target: NFAT (in Hela cells) (human)
Assay: cell-based or functional assay

NFAT-luciferase reporter activity in Hela cells: 80 % reduction
Substance: Flag tagged full length wild type human IRAK-1 (pFlag-IRAK-1)
